Data from the supplement of paper PMC7877785.
± gives the uncertainty stated by the source.

Assay: self-splicing fitness, log relative to wild type (ln ratio); higher = more splicing; Tetrahymena group I intron in knt gene, E. coli kanamycin selection, DiMSum; sequences stand for … in CUCUCU…GGAGGGAAAAGUUAUCAGGCAUGCACCUGGUAGCUAGUCUUUAAACCAAUAGAUUGCAUCGGUUUAAAAGGCAAGACCGUCAAAUUGCGGGAAAGGGGUCAACAGCCGUUCAGUACCAAGUCUCAGGGGAAACUUUGAGAUGGCCUUGCAAAGGGUAUGGUAAUAAGCUGACGGACAUGGUCCUAACCACGCAGCCAAGUCCUAAGUCAACAGAUCUUCUGUUGAUAUGGAUGCAGUUCACAGACUAAAUGUCGGUCGGGGAAGAUGUAUUCUUCUCAUAAGAUAUAGUCGGACCUCUCCUUAAUGGGAGCUAGCGGAUGAAGUGAUGCAACACUGGAGCCGCUGGGAACUAAUUUGUAUGCGAAAGUAUAUUGAUUAGUUUUGGAGUACUCGUGGUCG
How it was run: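 Fitness was computed with DiMSum as the error-weighted combination of replicate fold changes, kanamycin versus none, each normalised to wild type. The library randomised all eight intron nucleotides of the P1ex region, with the intron placed in the knt kanamycin-resistance gene on pET-22b(+) in E. coli BL21(DE3). Six replicate transformations were grown overnight at 37°C or 30°C on LB agar with or without 25 μg/mL kanamycin, plus 100 μg/mL carbenicillin, 50 μM IPTG and 0.2% rhamnose. Pooled colonies were amplicon-sequenced on an Illumina HiSeq 2500.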

Sequence	self-splicing fitness (ln) (30 °C)	self-splicing fitness (ln) (37 °C)
UCUGAGCAAUAUUACGGUGA	-0.612 ± 0.11	-0.1 ± 0.13
UCUGAGCAAUAUUACGUCAA	-2.53 ± 0.24	-2.22 ± 0.27
UCUGAGCAAUAUUACGUCUG	-1.01 ± 0.11	-1.4 ± 0.14
UCUGAGCAAUAUUACGUGCA	-2.65 ± 0.19	-1.99 ± 0.22
UCUGAGCAAUAUUACGUUAG	-2.36 ± 0.14	-1.82 ± 0.17
UCUUAGCAAUAUUACGACCU	-1.75 ± 0.4	0.256 ± 0.43
UCUUAGCAAUAUUACGACUG	-2.53 ± 0.23	-1.69 ± 0.23
UCUUAGCAAUAUUACGCACU	-2.05 ± 0.33	-0.732 ± 0.36
UCUUAGCAAUAUUACGCGAU	-3.71 ± 0.33	-3.67 ± 0.34
UCUUAGCAAUAUUACGCUUG	-2.43 ± 0.24	-1.89 ± 0.23
UCUUAGCAAUAUUACGGCUU	-3.65 ± 0.41	-2.63 ± 0.48
UCUUAGCAAUAUUACGGGCA	-0.387 ± 0.14	-0.119 ± 0.16
UCUUAGCAAUAUUACGGGCU	-4.8 ± 0.46	-2.26 ± 0.28
UCUUAGCAAUAUUACGGUAU	-4.43 ± 0.39	-2.85 ± 0.29
UCUUAGCAAUAUUACGGUCU	-4.42 ± 0.42	-2.67 ± 0.32
UCUUAGCAAUAUUACGUCGA	-0.705 ± 0.13	-0.434 ± 0.15
UCUUAGCAAUAUUACGUCGG	-0.815 ± 0.21	-0.0675 ± 0.2
UCUUAGCAAUAUUACGUCUC	-3.09 ± 0.3	-2.39 ± 0.39
UCUUAGCAAUAUUACGUGGA	-3.14 ± 0.32	-3.03 ± 0.37
UCUUAGCAAUAUUACGUGGC		-1.6 ± 0.42
UCUUAGCAAUAUUACGUUAA	-2.98 ± 0.26	-2.67 ± 0.38
UCUUAGCAAUAUUACGUUAC		-2.83 ± 0.31

Sequence	self-splicing fitness (ln) (30 °C)	self-splicing fitness (ln) (37 °C)
UGAAAGCAAUAUUACGAAAG	-2.61 ± 0.15	-0.866 ± 0.16
UGAAAGCAAUAUUACGACCC	-1.44 ± 0.31	
UGAAAGCAAUAUUACGACUC	-2.17 ± 0.2	-1.88 ± 0.25
UGAAAGCAAUAUUACGAGGA	-3.43 ± 0.24	-1.81 ± 0.15
UGAAAGCAAUAUUACGAGUC	-3.42 ± 0.28	-2.28 ± 0.26
UGAAAGCAAUAUUACGAUCA	-0.309 ± 0.084	-0.381 ± 0.1
UGAAAGCAAUAUUACGCAAC	-3.98 ± 0.29	-1.69 ± 0.19
UGAAAGCAAUAUUACGCCAU	-3.11 ± 0.3	-3.23 ± 0.33
UGAAAGCAAUAUUACGCCCA	-0.309 ± 0.11	0.296 ± 0.16
UGAAAGCAAUAUUACGCCUU	-0.914 ± 0.2	-2.01 ± 0.34
UGAAAGCAAUAUUACGCGCA	-0.0804 ± 0.12	0.142 ± 0.15
UGAAAGCAAUAUUACGGGGG	-2.07 ± 0.17	-2.89 ± 0.26
UGAAAGCAAUAUUACGGGGU	-3.55 ± 0.2	-2.48 ± 0.18
UGAAAGCAAUAUUACGGUAG	-0.656 ± 0.06	-0.113 ± 0.088
UGAAAGCAAUAUUACGGUAU	-2.53 ± 0.21	-0.827 ± 0.16
UGAAAGCAAUAUUACGGUGG	-1.22 ± 0.063	-1.44 ± 0.093
UGAAAGCAAUAUUACGUACG	-0.177 ± 0.11	0.639 ± 0.13
UGAAAGCAAUAUUACGUAGU	-3.96 ± 0.26	-2.16 ± 0.18
UGAAAGCAAUAUUACGUCAA	-0.68 ± 0.12	-1.31 ± 0.12
UGAAAGCAAUAUUACGUCAG	-1.78 ± 0.13	-0.368 ± 0.13
UGAAAGCAAUAUUACGUGUU	-3.21 ± 0.13	-1.44 ± 0.11
